Test results taken from publication PMC5039624 (Scientific Reports, 2016).
Changes are numbered by the printed parent chain. Bridge positions count the residues as written; N and C are the ends. Peptide text beside a SMILES is read from it.

Legend:
[1] = Liposome centrifugation assay, POPG liposomes; type: physicochemical; conditions: LUVs extruded through 0.1 μm filters, 10 mM HEPES pH 7.4, 150 mM NaCl; 10 μM toxin, 1 h room temperature, 30 min at 100,000 g; unbound toxin in supernatant by RP-HPLC; fit to partition equilibrium equation
Protocol: To investigate whether the micelle-binding interface identified by NMR-CSM faithfully reports on the lipid-binding interface of the peptide we used a previously reported liposome centrifugation assay[30] to study the interaction between VSTx1 and phospholipids with different head groups. VSTx1 was incubated with liposomes of different composition, then the liposomes were pelleted using ultracentrifugation and the amount of unbound VSTx1 in the supernatant was determined using reverse-phase (RP) HPLC (Fig. 4a,b). Partition coefficients (Kp) for binding of VSTx1 to liposomes were calculated by fitting to the partition equilibrium equation (see Eqn (3) in Materials and Methods). The Kp for binding to 1-palmitoyl-2-oleoyl-sn-glycero-3-phosphoglycerol (POPG) liposomes was 2.4 × 10^5 while the Kp values for binding to POPC or 1-palmitoyl-2-oleoyl-sn-glycero-3-phosphoethanolamine (POPE) liposomes were close to 0 (both <10^2) (Fig. 4e).
Large unilamellar vesicles (LUVs) were prepared by drying lipids (POPG and/or POPC, 25 mg/mL) under nitrogen gas, drying the lipid pellet under vacuum, and resuspending the lipids by vortexing for 1 h in an aqueous buffer containing 10 mM HEPES pH 7.4, and 150 mM NaCl. Vesicles were extruded 20 times using 0.1 μm polycarbonate filters (Avanti Polar Lipids, Inc.). Aqueous solutions of the toxin (10 μM) were incubated with varying amounts of vesicles for 1 h at room temperature, then the vesicles were centrifuged for 30 min at 100,000 g before the toxin concentration in the aqueous phase was determined. Aqueous concentrations of VSTx1 were quantified by RP-HPLC using a monolithic C18 column (4.6 × 100 mm). The toxin was eluted with a linear gradient of 10–50% solvent B (0.046% TFA in acetonitrile) in solvent A (0.05% TFA in water) over 10 min at a flow rate of 3 ml/min. The partition coefficients (Kp) for the binding of VSTx1 to liposomes were calculated by fitting to the partition equilibrium equation: […]

[2] = molecular target: isolated voltage-sensor domain of the voltage-gated potassium channel KvAP (VSDK), wild type (UniProt Q9YDF8); test: pull-down
[3] = molecular target: T1, isolated voltage-sensor domain of the voltage-gated potassium channel KvAP (VSDK), wild type (UniProt Q9YDF8 19-160); test: NMR titration; conditions: both partners purified
T1 construct: also called WT VSDK; KvAP voltage sensor
T1 sequence: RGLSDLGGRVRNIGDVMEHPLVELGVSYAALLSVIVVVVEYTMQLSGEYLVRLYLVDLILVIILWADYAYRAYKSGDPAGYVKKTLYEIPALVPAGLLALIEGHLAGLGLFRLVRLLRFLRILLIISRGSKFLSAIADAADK

VSDK E45A = molecular target: T2, VSDK E45A (UniProt Q9YDF8 19-160, E45A); test: pull-down; conditions: both partners purified
T2 sequence: T1 sequence with E40A

VSDK Q49A = molecular target: T3, VSDK Q49A (UniProt Q9YDF8 19-160, Q49A); test: pull-down; conditions: both partners purified
T3 sequence: T1 sequence with Q44A

VSDK S51A = molecular target: T4, VSDK S51A (UniProt Q9YDF8 19-160, S51A); test: pull-down; conditions: both partners purified
T4 sequence: T1 sequence with S46A

VSDK E107A = molecular target: T5, VSDK E107A (UniProt Q9YDF8 19-160, E107A); test: pull-down; conditions: both partners purified
T5 sequence: T1 sequence with E102A

VSDK Y46A = molecular target: T6, VSDK Y46A (UniProt Q9YDF8 19-160, Y46A); test: pull-down; conditions: both partners purified
T6 sequence: T1 sequence with Y41A

VSDK T47A = molecular target: T7, VSDK T47A (UniProt Q9YDF8 19-160, T47A); test: pull-down; conditions: both partners purified
T7 sequence: T1 sequence with T42A

VSDK R120A = molecular target: T8, VSDK R120A (UniProt Q9YDF8 19-160, R120A); test: pull-down; conditions: both partners purified
T8 sequence: T1 sequence with R115A

CSCC[C@@H]1NC(=O)[C@H](Cc2ccccc2)NC(=O)[C@H](CCCCN)NC(=O)CNC(=O)[C@@H](NC(=O)[C@H](CCC(=O)O)NC(=O)[C@@H](N)CO)CSSC[C@@H]2NC(=O)[C@@H]3CSSC[C@@H](C(=O)N[C@H](C(=O)N[C@@H](CC(C)C)C(=O)N[C@@H](C)C(=O)N[C@@H](CO)C(=O)N4CCC[C@H]4C(=O)N[C@@H](Cc4ccccc4)C(=O)O)C(C)C)NC(=O)[C@H](Cc4c[nH]c5ccccc45)NC(=O)[C@H](CCCCN)NC(=O)[C@H](Cc4c[nH]c5ccccc45)NC(=O)[C@H](CCCNC(=N)N)NC(=O)[C@H](CO)NC(=O)[C@H](CO)NC(=O)[C@H](CSSC[C@H](NC(=O)[C@H](C)NC(=O)[C@H](Cc4c[nH]c5ccccc45)NC1=O)C(=O)N[C@@H](CCCCN)C(=O)N[C@@H](CC(N)=O)C(=O)N[C@@H](CO)C(=O)N[C@@H](CC(N)=O)C(=O)N[C@@H](CC(=O)O)C(=O)N3)NC(=O)[C@H](C(C)C)NC(=O)[C@H](CC(C)C)NC(=O)[C@H](CC(=O)O)NC(=O)[C@H](CCCCN)NC2=O [K8A] (H-SECGKFMWACKNSNDCCKDLVCSSRWKWCVLASPF-OH; disulfide 3-17, 10-22, 16-29)
Partition coefficient (Kp) for binding to POPG liposomes [1]: 0.38 × 10^5

CSCC[C@@H]1NC(=O)[C@H](Cc2ccccc2)NC(=O)[C@H](CCCCN)NC(=O)CNC(=O)[C@@H](NC(=O)[C@H](CCC(=O)O)NC(=O)[C@@H](N)CO)CSSC[C@@H]2NC(=O)[C@@H]3CSSC[C@@H](C(=O)N[C@H](C(=O)N[C@@H](C)C(=O)N[C@@H](C)C(=O)N[C@@H](CO)C(=O)N4CCC[C@H]4C(=O)N[C@@H](Cc4ccccc4)C(=O)O)C(C)C)NC(=O)[C@H](Cc4c[nH]c5ccccc45)NC(=O)[C@H](CCCCN)NC(=O)[C@H](Cc4c[nH]c5ccccc45)NC(=O)[C@H](CCCNC(=N)N)NC(=O)[C@H](CO)NC(=O)[C@H](CO)NC(=O)[C@H](CSSC[C@H](NC(=O)[C@H](CCCCN)NC(=O)[C@H](Cc4c[nH]c5ccccc45)NC1=O)C(=O)N[C@@H](CCCCN)C(=O)N[C@@H](CC(N)=O)C(=O)N[C@@H](CO)C(=O)N[C@@H](CC(N)=O)C(=O)N[C@@H](CC(=O)O)C(=O)N3)NC(=O)[C@H](C(C)C)NC(=O)[C@H](CC(C)C)NC(=O)[C@H](CC(=O)O)NC(=O)[C@H](CCCCN)NC2=O [L30A] (H-SECGKFMWKCKNSNDCCKDLVCSSRWKWCVAASPF-OH; disulfide 3-17, 10-22, 16-29)
Partition coefficient (Kp) for binding to POPG liposomes [1]: 0.55 × 10^5

CSCC[C@@H]1NC(=O)[C@H](Cc2ccccc2)NC(=O)[C@H](CCCCN)NC(=O)CNC(=O)[C@@H](NC(=O)[C@H](CCC(=O)O)NC(=O)[C@@H](N)CO)CSSC[C@@H]2NC(=O)[C@@H]3CSSC[C@@H](C(=O)N[C@H](C(=O)N[C@@H](CC(C)C)C(=O)N[C@@H](C)C(=O)N[C@@H](CO)C(=O)N4CCC[C@H]4C(=O)N[C@@H](Cc4ccccc4)C(=O)O)C(C)C)NC(=O)[C@H](Cc4c[nH]c5ccccc45)NC(=O)[C@H](CCCCN)NC(=O)[C@H](Cc4c[nH]c5ccccc45)NC(=O)[C@H](CCCNC(=N)N)NC(=O)[C@H](CO)NC(=O)[C@H](CO)NC(=O)[C@H](CSSC[C@H](NC(=O)[C@H](CCCCN)NC(=O)[C@H](Cc4c[nH]c5ccccc45)NC1=O)C(=O)N[C@@H](CCCCN)C(=O)N[C@@H](CC(N)=O)C(=O)N[C@@H](CO)C(=O)N[C@@H](C)C(=O)N[C@@H](CC(=O)O)C(=O)N3)NC(=O)[C@H](C(C)C)NC(=O)[C@H](CC(C)C)NC(=O)[C@H](CC(=O)O)NC(=O)[C@H](CCCCN)NC2=O [N13A] (H-SECGKFMWKCKNSADCCKDLVCSSRWKWCVLASPF-OH; disulfide 3-17, 10-22, 16-29)
Partition coefficient (Kp) for binding to POPG liposomes [1]: 2.7 × 10^5

CSCC[C@@H]1NC(=O)[C@H](Cc2ccccc2)NC(=O)[C@H](CCCCN)NC(=O)CNC(=O)[C@@H](NC(=O)[C@H](CCC(=O)O)NC(=O)[C@@H](N)CO)CSSC[C@@H]2NC(=O)[C@@H]3CSSC[C@@H](C(=O)N[C@H](C(=O)N[C@@H](CC(C)C)C(=O)N[C@@H](C)C(=O)N[C@@H](CO)C(=O)N4CCC[C@H]4C(=O)N[C@@H](Cc4ccccc4)C(=O)O)C(C)C)NC(=O)[C@H](Cc4c[nH]c5ccccc45)NC(=O)[C@H](CCCCN)NC(=O)[C@H](Cc4c[nH]c5ccccc45)NC(=O)[C@H](C)NC(=O)[C@H](CO)NC(=O)[C@H](CO)NC(=O)[C@H](CSSC[C@H](NC(=O)[C@H](CCCCN)NC(=O)[C@H](Cc4c[nH]c5ccccc45)NC1=O)C(=O)N[C@@H](CCCCN)C(=O)N[C@@H](CC(N)=O)C(=O)N[C@@H](CO)C(=O)N[C@@H](CC(N)=O)C(=O)N[C@@H](CC(=O)O)C(=O)N3)NC(=O)[C@H](C(C)C)NC(=O)[C@H](CC(C)C)NC(=O)[C@H](CC(=O)O)NC(=O)[C@H](CCCCN)NC2=O [R24A] (H-SECGKFMWKCKNSNDCCKDLVCSSAWKWCVLASPF-OH; disulfide 3-17, 10-22, 16-29)
Partition coefficient (Kp) for binding to POPG liposomes [1]: 0.11 × 10^5

CSCC[C@@H]1NC(=O)[C@H](Cc2ccccc2)NC(=O)[C@H](CCCCN)NC(=O)CNC(=O)[C@@H](NC(=O)[C@H](CCC(=O)O)NC(=O)[C@@H](N)CO)CSSC[C@@H]2NC(=O)[C@@H]3CSSC[C@@H](C(=O)N[C@H](C(=O)N[C@@H](CC(C)C)C(=O)N[C@@H](C)C(=O)N[C@@H](CO)C(=O)N4CCC[C@H]4C(=O)N[C@@H](Cc4ccccc4)C(=O)O)C(C)C)NC(=O)[C@H](Cc4c[nH]c5ccccc45)NC(=O)[C@H](CCCCN)NC(=O)[C@H](Cc4c[nH]c5ccccc45)NC(=O)[C@H](CCCNC(=N)N)NC(=O)[C@H](CO)NC(=O)[C@H](CO)NC(=O)[C@H](CSSC[C@H](NC(=O)[C@H](CCCCN)NC(=O)[C@H](C)NC1=O)C(=O)N[C@@H](CCCCN)C(=O)N[C@@H](CC(N)=O)C(=O)N[C@@H](CO)C(=O)N[C@@H](CC(N)=O)C(=O)N[C@@H](CC(=O)O)C(=O)N3)NC(=O)[C@H](C(C)C)NC(=O)[C@H](CC(C)C)NC(=O)[C@H](CC(=O)O)NC(=O)[C@H](CCCCN)NC2=O [W7A] (H-SECGKFMAKCKNSNDCCKDLVCSSRWKWCVLASPF-OH; disulfide 3-17, 10-22, 16-29)
Partition coefficient (Kp) for binding to POPG liposomes [1]: 0.77 × 10^5

VSTx1 K8A (peptide)
percent decrease in binding against wild-type VSTx1 [2]: 20%

VSTx1 W7A (peptide)
percent decrease in binding against wild-type VSTx1 [2]: 58%

B1: VSTx1 (recombinant, wild type) (peptide)
chain: SECGKFMWKCKNSNDCCKDLVCSSRWKWCVLASPF
notes: also called WT VSTx1; spider-venom peptide VSTx1; not shown: His6, N-terminal, cleaved; MBP, N-terminal, cleaved
Kd [3]: 140 µM | percent decrease in binding against wild-type VSDK (VSDK E45A): 65% | percent decrease in binding against wild-type VSDK (VSDK Q49A): 58% | binding result (VSDK S51A): binds | percent decrease in binding against wild-type VSDK (VSDK E107A): 59% | binding result (VSDK Y46A): binds | binding result (VSDK T47A): binds | binding result (VSDK R120A): binds
